Laboratory results: article PMC12881670, “Investigation into ligand selectivity and bias at the formyl peptide receptor family” (The Journal of Pharmacology and Experimental Therapeutics, 2025)
Read-outs that look alike come from different tables or passages of the source.

Tests used:
[1] = biological target: T1, FLAG-tagged mouse Fpr1 (Mm_Fpr1) (mouse, UniProt P33766 1-364)
T1 sequence (looked up): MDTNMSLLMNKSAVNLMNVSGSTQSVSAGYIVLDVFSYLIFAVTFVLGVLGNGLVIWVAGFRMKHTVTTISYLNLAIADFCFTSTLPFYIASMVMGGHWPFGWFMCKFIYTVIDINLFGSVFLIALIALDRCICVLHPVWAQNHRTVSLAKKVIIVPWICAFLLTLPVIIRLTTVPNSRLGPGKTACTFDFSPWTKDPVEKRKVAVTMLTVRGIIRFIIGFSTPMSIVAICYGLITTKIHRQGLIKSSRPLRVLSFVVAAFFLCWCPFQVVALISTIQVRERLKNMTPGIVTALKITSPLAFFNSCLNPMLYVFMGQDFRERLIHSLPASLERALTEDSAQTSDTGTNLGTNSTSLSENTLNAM

[2] = biological target: T2, FLAG-tagged human FPR1 (Hs_FPR1) (human, UniProt P21462 1-350)
T2 sequence (looked up): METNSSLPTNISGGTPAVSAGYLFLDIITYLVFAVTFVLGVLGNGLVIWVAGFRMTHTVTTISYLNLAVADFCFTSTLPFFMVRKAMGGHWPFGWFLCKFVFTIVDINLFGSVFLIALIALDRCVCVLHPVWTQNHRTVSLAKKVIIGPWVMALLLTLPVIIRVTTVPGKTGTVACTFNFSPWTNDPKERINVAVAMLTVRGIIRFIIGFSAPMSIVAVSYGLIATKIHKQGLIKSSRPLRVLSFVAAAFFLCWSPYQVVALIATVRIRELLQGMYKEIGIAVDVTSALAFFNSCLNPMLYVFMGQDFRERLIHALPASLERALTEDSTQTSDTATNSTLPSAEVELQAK

[3] = biological target: T3, FLAG-tagged human FPR2 (Hs_FPR2) (human, UniProt P25090 1-351)
T3 sequence (looked up): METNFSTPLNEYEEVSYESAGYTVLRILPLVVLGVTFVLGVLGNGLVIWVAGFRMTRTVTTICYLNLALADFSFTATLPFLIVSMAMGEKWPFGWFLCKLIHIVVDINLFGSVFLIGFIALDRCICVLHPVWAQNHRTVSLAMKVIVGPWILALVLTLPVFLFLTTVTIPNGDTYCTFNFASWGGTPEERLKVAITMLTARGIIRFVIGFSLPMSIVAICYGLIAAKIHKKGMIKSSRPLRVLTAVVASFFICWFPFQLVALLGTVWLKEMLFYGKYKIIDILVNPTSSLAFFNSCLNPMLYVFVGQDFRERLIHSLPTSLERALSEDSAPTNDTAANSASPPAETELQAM

[4] = biological target: T1, FLAG-tagged mouse Fpr1 (Mm_Fpr1); remark: listed apart in the source
[5] = biological target: T4, FLAG-tagged mouse Fpr2 (Mm_Fpr2) (mouse, UniProt O88536 1-351)
T4 sequence (looked up): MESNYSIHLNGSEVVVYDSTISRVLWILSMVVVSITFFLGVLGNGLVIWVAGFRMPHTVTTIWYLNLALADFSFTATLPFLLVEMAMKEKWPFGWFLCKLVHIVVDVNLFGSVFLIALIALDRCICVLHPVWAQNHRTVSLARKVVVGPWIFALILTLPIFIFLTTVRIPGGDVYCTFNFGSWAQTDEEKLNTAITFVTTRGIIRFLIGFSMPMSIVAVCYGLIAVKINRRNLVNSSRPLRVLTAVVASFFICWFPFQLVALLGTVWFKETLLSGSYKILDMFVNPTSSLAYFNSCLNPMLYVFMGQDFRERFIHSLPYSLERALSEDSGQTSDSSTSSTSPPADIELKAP

[6] = biological target: T2, FLAG-tagged human FPR1 (Hs_FPR1); remark: listed apart in the source
[7] = biological target: T3, FLAG-tagged human FPR2 (Hs_FPR2); remark: listed apart in the source
[8] = biological target: T2, FLAG-tagged human FPR1 (Hs_FPR1); assay: flow cytometry on cells; competition binding: HEK293 cells stably expressing the receptor, lifted in PBS, on ice 90 min with 10 nM K(5/6-FAM)-WKYMVm and increasing unlabeled ligand; mean fluorescence of 5000 cells as % of that without competitor; One site-Fit logIC50
[9] = biological target: T5, FLAG-Hs_FPR1 C-terminally fused to Renilla Luciferase 8 (human, UniProt P21462 1-350); assay: cell-based or functional assay
T5 sequence (looked up): T2 sequence (looked up)

[10] = biological target: T6, FLAG-Hs_FPR2 C-terminally fused to Renilla Luciferase 8 (human, UniProt P25090 1-351); assay: cell-based or functional assay
T6 sequence (looked up): T3 sequence (looked up)

[11] = biological target: T7, FLAG-Mm_Fpr1 C-terminally fused to Renilla Luciferase 8 (mouse, UniProt P33766 1-364); assay: cell-based or functional assay
T7 sequence (looked up): T1 sequence (looked up)

[12] = biological target: T8, FLAG-Mm_Fpr2 C-terminally fused to Renilla Luciferase 8 (mouse, UniProt O88536 1-351); assay: cell-based or functional assay
T8 sequence (looked up): T4 sequence (looked up)

[13] = biological target: T1, FLAG-tagged mouse Fpr1 (Mm_Fpr1); assay: cell-based or functional assay
[14] = biological target: T4, FLAG-tagged mouse Fpr2 (Mm_Fpr2); assay: cell-based or functional assay
[15] = biological target: T2, FLAG-tagged human FPR1 (Hs_FPR1); assay: cell-based or functional assay
[16] = biological target: T3, FLAG-tagged human FPR2 (Hs_FPR2); assay: cell-based or functional assay
[17] = biological target: T5, FLAG-Hs_FPR1 C-terminally fused to …; assay: cell-based or functional assay; remark: listed apart in the source
[18] = biological target: T6, FLAG-Hs_FPR2 C-terminally fused to …; assay: cell-based or functional assay; remark: listed apart in the source
[19] = biological target: T7, FLAG-Mm_Fpr1 C-terminally fused to …; assay: cell-based or functional assay; remark: listed apart in the source
[20] = biological target: T8, FLAG-Mm_Fpr2 C-terminally fused to …; assay: cell-based or functional assay; remark: listed apart in the source
[21] = biological target: T1, FLAG-tagged mouse Fpr1 (Mm_Fpr1); assay: cell-based or functional assay; remark: listed apart in the source
[22] = biological target: T4, FLAG-tagged mouse Fpr2 (Mm_Fpr2); assay: cell-based or functional assay; remark: listed apart in the source
[23] = biological target: T2, FLAG-tagged human FPR1 (Hs_FPR1); assay: cell-based or functional assay; remark: listed apart in the source
[24] = biological target: T3, FLAG-tagged human FPR2 (Hs_FPR2); assay: cell-based or functional assay; remark: listed apart in the source
[25] = biological target: T1, FLAG-tagged mouse Fpr1 (Mm_Fpr1); assay: flow cytometry on cells; competition binding: HEK293 cells stably expressing the receptor, lifted in PBS, on ice 90 min with 10 nM K(5/6-FAM)-WKYMVm and increasing unlabeled ligand; mean fluorescence of 5000 cells as % of that without competitor; One site-Fit logIC50
[26] = biological target: T4, FLAG-tagged mouse Fpr2 (Mm_Fpr2); assay: as above
[27] = biological target: T3, FLAG-tagged human FPR2 (Hs_FPR2); assay: as above

fMet-Leu-Phe (fMLF) (peptide) showed an ERK1/2 phosphorylation (Western blot): Emax (% of 1 μM WKYMVm) [1] of 72.7%, an ERK1/2 phosphorylation (Western blot): Log EC50 (M) [1] of -5.64 log M and an ERK1/2 phosphorylation (Western blot): Emax (% of 1 μM WKYMVm) [2] of 143%. It also gave an ERK1/2 phosphorylation (Western blot): Log EC50 (M) [2] of -8.91 log M, an ERK1/2 phosphorylation (Western blot): Emax (% of 1 μM WKYMVm) [3] of 40.2% and an ERK1/2 phosphorylation (Western blot): Log EC50 (M) [3] of -4.82 log M. For the same molecule, the receptor internalization (flow cytometry): Emax (% of 1 μM WKYMVm) [4] was 92.5%, the receptor internalization (flow cytometry): Log EC50 (M) [4] was -5.35 log M and the receptor internalization (flow cytometry): Emax (% of 1 μM WKYMVm) [5] was 54.4%. It also gave a receptor internalization (flow cytometry): Log EC50 (M) [5] of -3.8 log M, a receptor internalization (flow cytometry): Emax (% of 1 μM WKYMVm) [6] of 92.1% and a receptor internalization (flow cytometry): Log EC50 (M) [6] of -7.38 log M. The receptor internalization (flow cytometry): Emax (% of 1 μM WKYMVm) [7] was 0.343%, the receptor internalization (flow cytometry): Log EC50 (M) [7] was -8.95 log M and the Log IC50 [8] was -6.19 log M. It also gave a Max Comp (%) [8] of 88%.

B1: WKYMVM (peptide)
peptide: WKYMVM
notes: synthetic hexapeptide, all L residues; also called L-enantiomer of WKYMVm; source: bought: Tocris
In the case of B1, the “BRET of receptor-RLuc8 with Venus-mGsi: Emax (% of 1 μM WKYMVm)” value [9] is reported as 44.1%, the “BRET of receptor-RLuc8 with Venus-mGsi: Emax (% of 1 μM WKYMVm)” value [10] is reported as 79.2% and the “BRET of receptor-RLuc8 with Venus-mGsi: Emax (% of 1 μM WKYMVm)” value [11] is reported as 37.5%. The “BRET of receptor-RLuc8 with Venus-mGsi: Log EC50 (M)” value [11] was -5.68 log M, the “BRET of receptor-RLuc8 with Venus-mGsi: Emax (% of 1 μM WKYMVm)” value [12] was 87.9% and the “BRET of receptor-RLuc8 with Venus-mGsi: Log EC50 (M)” value [12] was -6.49 log M. The “ERK1/2 phosphorylation (Western blot): Emax (% of 1 μM WKYMVm)” value (“ERK1/2 phosphorylation … (% of 1 μM WKYMVm)” for short) [13] was 118%, the “ERK1/2 phosphorylation (Western blot): Log EC50 (M)” value [13] was -7.08 log M and the “ERK1/2 phosphorylation … (% of 1 μM WKYMVm)” value [14] was 128%. For the same molecule, the “ERK1/2 phosphorylation (Western blot): Log EC50 (M)” value [14] was -7.91 log M, the “ERK1/2 phosphorylation … (% of 1 μM WKYMVm)” value [15] was 141% and the “ERK1/2 phosphorylation … (% of 1 μM WKYMVm)” value [16] was 125%. For the same molecule, the “BRET of receptor-RLuc8 with Arrestin 3-YFP: Emax (% of 1 μM WKYMVm)” value [17] was 75%, the “BRET of receptor-RLuc8 with Arrestin 3-YFP: Emax (% of 1 μM WKYMVm)” value [18] was 94.8% and the “BRET of receptor-RLuc8 with Arrestin 3-YFP: Emax (% of 1 μM WKYMVm)” value [19] was 83.1%. For the same molecule, the “BRET of receptor-RLuc8 with Arrestin 3-YFP: Log EC50 (M)” value [19] was -5.56 log M, the “BRET of receptor-RLuc8 with Arrestin 3-YFP: Emax (% of 1 μM WKYMVm)” value [20] was 94.3% and the “BRET of receptor-RLuc8 with Arrestin 3-YFP: Log EC50 (M)” value [20] was -6.59 log M. The “receptor internalization (flow cytometry): Emax (% of 1 μM WKYMVm)” value (from here on “receptor internalization … (% of 1 μM WKYMVm)”) [21] was 99.4%, the “receptor internalization (flow cytometry): Log EC50 (M)” value [21] was -6.29 log M and the “receptor internalization … (% of 1 μM WKYMVm)” value [22] was 75.6%. For the same molecule, the “receptor internalization (flow cytometry): Log EC50 (M)” value [22] was -6.96 log M, the “receptor internalization … (% of 1 μM WKYMVm)” value [23] was 101% and the “receptor internalization … (% of 1 μM WKYMVm)” value [24] was 82.3%. The “Log IC50” value [25] was -5.55 log M, the “Max Comp (%)” value [25] was 85.4% and the “Log IC50” value [26] was -6.23 log M. The “Max Comp (%)” value [26] was 100%, the “Max Comp (%)” value [8] was 94.9% and the “Max Comp (%)” value [27] was 99.8%.
